Assay results taken from patent US20160017348A1 (published 2016).

Columns and labels:
H3(1-15)K9me2 peptide [1] = molecular target: T1, H3(1-15)K9me2 peptide (UniProt P59226 2-16, dimethyl-lysine at K9); assay: ITC; FIG. 3B
T1 peptide: ARTKQTARKSTGGKA

H3(1-15)K9me2 peptide [2] = molecular target: T1, H3(1-15)K9me2 peptide; assay: ITC; FIG. 3A
H4K20me2 = assay: ITC; FIG. 3B
H3K4me2 = assay: ITC; FIG. 3B

B1: SHH1 SAWADEE domain (residues 125-258) (other)
chain: ADLAFEAKSARDYAWYDVSSFLTYRVLRTGELEVRVRFSGFDNRHDEWVNVKTSVRERSIPVEPSECGRVNVGDLLLCFQEREDQALYCDGHVLNIKRGIHDHARCNCVFLVRYELDNTEESLGLERICRRPEE
Kd (H3(1-15)K9me2 peptide [1]): 1.9 µM | Kd (H3(1-15)K9me2 peptide [2]): 1.9 µM

B2: SAWADEE domain (other)
chain: ADLAFEAKSARDYAWYDVSSFLTYRVLRTGELEVRVRFSGFDNRHDEWVNVKTSVRERSIPVEPSECGRVNVGDLLLCFQEREDQALYCDGHVLNIKRGIHDHARCNCVFLVRYELDNTEESLGLERICRRPEE
Kd (H4K20me2): 80.6 µM | Kd (H3K4me2): 52.1 µM
